Source: patent US20170051304A1 (DOW AGROSCIENCES, published 2017)
Changes are numbered by the printed parent chain. Values joined by “and” are separate entries in the source; they are usually repeats but may differ in a detail not shown here. Equal entries are not always repeated. Where no end group is shown, it is not given here.

T1: Large fragment (residues 12-390) of trypsin treated DIG-984 (DIG-177 C88>A; C451>A) (Bacillus thuringiensis) (UniProt Q45757)
T1 sequence: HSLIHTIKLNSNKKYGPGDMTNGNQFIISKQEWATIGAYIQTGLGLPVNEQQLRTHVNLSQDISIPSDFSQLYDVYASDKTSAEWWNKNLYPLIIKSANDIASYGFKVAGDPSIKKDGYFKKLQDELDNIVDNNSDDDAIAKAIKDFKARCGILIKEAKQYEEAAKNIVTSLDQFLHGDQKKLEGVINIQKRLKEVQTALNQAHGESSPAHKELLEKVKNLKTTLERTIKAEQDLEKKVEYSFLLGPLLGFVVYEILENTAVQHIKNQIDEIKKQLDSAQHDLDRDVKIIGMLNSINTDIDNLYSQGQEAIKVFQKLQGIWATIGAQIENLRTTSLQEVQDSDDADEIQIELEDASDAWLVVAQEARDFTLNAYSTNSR

T2: Large fragment (residues 12-390) of trypsin treated DIG-616 (DIG-177 C162>A) (Bacillus thuringiensis, UniProt Q45757 12-390)
T2 sequence: T1 sequence with A77C, C151A

B1: DIG-177 (full length wild type Cry6Aa) (other)
chain: MIIDSKTTLPRHSLIHTIKLNSNKKYGPGDMTNGNQFIISKQEWATIGAYIQTGLGLPVNEQQLRTHVNLSQDISIPSDFSQLYDVYCSDKTSAEWWNKNLYPLIIKSANDIASYGFKVAGDPSIKKDGYFKKLQDELDNIVDNNSDDDAIAKAIKDFKARCGILIKEAKQYEEAAKNIVTSLDQFLHGDQKKLEGVINIQKRLKEVQTALNQAHGESSPAHKELLEKVKNLKTTLERTIKAEQDLEKKVEYSFLLGPLLGFVVYEILENTAVQHIKNQIDEIKKQLDSAQHDLDRDVKIIGMLNSINTDIDNLYSQGQEAIKVFQKLQGIWATIGAQIENLRTTSLQEVQDSDDADEIQIELEDASDAWLVVAQEARDFTLNAYSTNSRQNLPINVISDSCNCSTTNMTSNQYSNPTTNMTSNQYMISHEYTSLPNNFMLSRNSNLEYKCPENNFMIYWYNNSDWYNNSDWYNN
notes: Insecticidal crystal protein; Recombinant from Pseudomonas fluorescens (standard), or expressed in maize, there in part with transit peptides
B2: Carboxy terminal peptide 451-475 of trypsin treated DIG-984 (C451>A) (peptide)
peptide: APENNFMIYWYNNSDWYNNSDWYNN
B3: Carboxy terminal peptide 444-475 of trypsin treated DIG-984 (C451>A) (peptide)
peptide: NSNLEYKAPENNFMIYWYNNSDWYNNSDWYNN
B4: CTP 1 (Carboxy terminal peptide 1), amino acids 444-475 of SEQ ID NO:2 (peptide)
peptide: B3 peptide with A8C
modifications: also: Cys451 (position 8) disulfide-bonded to Cys88 of LF under non-reducing conditions
B5: CTP 2 (Carboxy terminal peptide 2), amino acids 451-475 of SEQ ID NO:2 (peptide)
peptide: CPENNFMIYWYNNSDWYNNSDWYNN
modifications: also: Cys451 (position 1) disulfide-bonded to Cys88 of LF under non-reducing conditions

Columns and labels:
[1] = target: the molecule itself; assay: SDS-PAGE of undigested full-length DIG-177 (self-association)
Experimental: SDS-PAGE was run following the protocol NuPAGE Bis-Tris gels from Invitrogen Life technologies (Protocol Pub. No. MAN0007894 Rev. A.0, Ref. 2). Briefly, samples were mixed with denaturing sample buffer (Invitrogen) plus 5 mM DTT (for reducing PAGE) or minus DTT (for non reducing PAGE) and heated at 95° C. for 5 minutes. The samples were loaded onto Invitrogen Bis/Tris gel. The gel was run with MOPS or MES running buffer under 200 V for ˜43 minutes. The gel was stained with Coomassie blue staining solution (Bio-Rad) for 30 minutes and de-stained with de-staining solution (7% Acetic acid and 5% Methanol in water) until the background cleared.

[2] = target: T1, Large fragment (residues 12-390) of trypsin treated DIG-984 (DIG-177 C88>A; C451>A) (Bacillus thuringiensis); assay: cell-based or functional assay
[3] = target: T2, Large fragment (residues 12-390) of …; assay: cell-based or functional assay

Row | Binder | % Mortality [2] | % Mortality [3] | further results
1 | B1 |  |  | binding result [1]: binds
2 | B2 | 0% and 21.1% and 15% |  | 
3 | B3 | 0% and 21.1% and 15% |  | 
4 | B4 |  | 95% | 
5 | B5 |  | 95% | 
